Data published in patent US11780895B2, “Targeted DNA demethylation and methylation” (The Jackson Laboratory, priority 2016, dated 2023).

Experiments:
hMLH1 promoter = assay: Bisulfite conversion and sequencing of the hMLH1 promoter region; format: cell-based, human; details: untransfected HEK293T cells treated for 6 days
Source text: Casilio-mediated delivery of demethylation enzymes alters methylation state of targeted genomic locus. Evidence that the shown Casilio-ME-induced activation of hMLH1 transcription is a result of TET1-mediated cytosine demethylation within the targeted promoter region came from DNA sequencing of hMLH1 promoter after bisulfite conversion. Bisulfite treatment of genomic DNA deaminates unmethylated cytosines to produce uracils that are subsequently replicated as thymine. However, methylated cytosines are protected from conversion to uracils, thus allowing one to determine cytosine methylation states at single-nucleotide resolution by direct sequencing.
To assess changes in methylation states of CpG island within hMLH1 promoter region after Casilio-ME-mediated transcription activation, time course experiment were carried out where cells were collected 3, 4, 5, and 6 days post transfection, for analysis of cytosine methylation as well as transcription activation, and protein expression. HEK293T were transfected with Casilio-ME components that includes Ct-fusion PUFa-TET1 effector and a combination of 2 sgRNAs (RNA guides 3 and 7).
Cell culture and transfection. […]

TetO::tdTomato transgene = TetO::tdTomato transgene activation measured by FACS; format: cell-based; details: with dCas9 and sgTetO-PBS; compared with 5-10 copies
Source text: In particular, to test whether appending PBS to the 3′ end of sgRNA affects sgRNA function, a series of modified Tet-targeting (sgTetO) or non-targeting control (sgControl) sgRNA were generated, with 0 copy, 5 copies, 15 copies, 25 copies, and 47 copies of the 8-mer Pumilio homologue domain-binding sequence (PBS) for PUF (3-2) (also simply referred to as PUFa) [PBS32 or PBSa: SEQ ID NO:8 (5′-UGUAUgUA-3′)], PUF(6-2/7-2) (also simply referred to as PUFb) [PBS6272 or PBSb: SEQ ID NO:9 (5′-UugAUAUA-3′)].
Cells were transfected with dCas9-VP64 with the different sgRNA scaffolds, and were analyzed by fluorescent-activated cell sorting (FACS) two days after transfection (FIG. 1B).
Fusions of PUF(3-2)::VP64 and PUF(6-2/7-2)::VP64, which interacts with sgRNA (sgRNA-PBS32) with 5′-UGUAUgUA-3′ binding sites and sgRNA-PBS6272 with 5′-UugAUAUA-3′ binding sites, respectively, were created, and their activity to turn on tdTomato expression in conjunction with dCas9 was tested. In addition, two additional pairs, PUFw-VP64 recognizing PBSw (5′-UGUAUAUA-3′) and PUFc-VP64 recognizing PBSc (5′-UugAUgUA-3′), were also constructed to test their ability to activate the same TetO::tdTomato expression in conjunction with dCas9 (FIG. 1D).
Cell Culture for Experiments. HEK293T cells were cultivated in Dulbecco's modified Eagle's medium (DMEM)(Sigma) with 10% fetal bovine serum (FBS)(Lonza), 4% Glutamax (Gibco), 1% Sodium Pyruvate (Gibco) and penicillin-streptomycin (Gibco). Incubator conditions were 37° C. and 5% CO2. For activation experiments, cells were seeded into 12-well plates at 100,000 cells per well the day before being transfected with 200 ng of dCas9 construct, 100 ng of modified sgRNA and 100 ng of PUF-fusion with Attractene transfection reagent (Qiagen). After transfection, cells were grown for 48 hrs and harvested for either RNA extraction or fluorescent-activated cell sorting (FACS). […]
Fluorescent-Activated Cell Sorting. […] Samples were analyzed on a FACScalibur flow cytometer using CellQuest Pro software (BD Bioscience). […] were collected in each run.

SOX2 = SOX2 gene expression by quantitative reverse-transcription PCR after targeting Dnmt effectors to the SOX2 promoter; format: cell-based; details: with dCas9 and sgRNA-PBS targeting SOX2 promoter; compared with dCas9 direct fusions
Method: Establishment of a dCas9-expressing cell line. The day prior to transfection, Lenti-X 293T cells were seeded into 6-well plates at 1.2 million cells per well. The cells were transfected with the supercoiled packaging plasmids (pLP1 (gag/pol), pLP2 (rev), and VSV-G (envelope)) and a dCas9 lentiviral expression plasmid through Lipofectamine 3000 reagent (Invitrogen). At 6 h posttransfection, medium was exchanged for fresh. At 24 h posttransfection, 2 ml of medium containing the lentivirus were collected and centrifuged for 10 minutes at 2,000 rpm to remove cellular debris. The supernatant was filtered utilizing a […] pore filter (Millipore), and the lentivirus was frozen at −80° C. until needed. HEK293T cells, seeded into a 12-well plate at 150,000 cells per well, were transduced with 500 μl of the dCas9 lentivirus in culture medium supplemented with 5 μg/ml polybrene for 12 hours, and subsequently selected with Blasticidin antibiotics on the third day post transduction.
Transfection. HEK293T, and HEK293T/dCas9 cell lines were seeded into 12-well plates at 150,000 cells per well. […] At 3 day post-transfection, the cells were sorted for GFP (sgRNA expression constructs are marked by GFP) with fluorescence-activated cell sorting (FACS) and re-plated into 12 or 24-well plates.
Quantitative reverse-transcription PCR. […]

In the case of `Nc1ncn([C@@H]2O[C@H](CO)[C@@H](O)[C@H]2O)c(=O)n1` [5′azacytidine, 5-Azacytidine], the “bisulfite conversion frequency within hMLH1 promoter region” value (hMLH1 promoter) is reported as “increased bisulfite conversion frequency on multiple CpG sites”.

B1: PUFb-VP64: PUF(6-2/7-2) domain with NLS fused to VP64 (protein)
chain: MGILPPKKKRKVSRGRSRLLEDFRNNRYPNLQLREIAGHIMEFSQDQHGSRFIQLKLERATPAERQLVFNEILQAAYQLMVDVFGNYVIQKFFEFGSLEQKLALAERIRGHVLSLALQMYGCRVIQKALEFIPSDQQNEMVRELDGHVLKCVKDQNGNHVVQKCIECVQPQSLQFIIDAFKGQVFALSTHPYGCRVIQRILEHCLPDQTLPILEELHQHTEQLVQDQYGSYVIEHVLEHGRPEDKSKIVAEIRGNVLVLSQHKFANNVVQKCVTHASRTERAVLIDEVCTMNDGPHSALYTMMKDQYANYVVQKMIDVAEPGQRKIVMHKIRPHIATLRKYTYGKHILAKLEKYYMKNGVDLGGPAGSGRADALDDFDLDMLGSDALDDFDLDMLGSDALDDFDLDMLGSDALDDFDLDMLYID
B1 was tested, and the “transgene activation with 15, 20, and 47 copies of PBS” value (TetO::tdTomato transgene) was “slightly lower, albeit still substantial transgene activation”.

B2: Dnmt3a-PUF: Dnmt3a catalytic domain fused to the N-terminus of PUFa (protein)
chain: MGPANHDQEFDPPKVYPPVPAEKRKPIRVLSLFDGIATGLLVLKDLGIQVDRYIASEVCEDSITVGMVRHQGKIMYVGDVRSVTQKHIQEWGPFDLVIGGSPCNDLSIVNPARKGLYEGTGRLFFEFYRLLHDARPKEGDDRPFFWLFENVVAMGVSDKRDISRFLESNPVMIDAKEVSAAHRARYFWGNLPGMNRPLASTVNDKLELQECLEHGRIAKFSKVRTITTRSNSIKQGKDQHFPVFMNEKEDILWCTEMERVFGFPVHYTDVSNMSRLARQRLLGRSWSVPVIRHLFAPLKEYFACVIDGGGGSDPKKKRKVDPKKKRKVDPKKKRKVGSTGSRNDGGGGSGGGGSGGGGSGRAGILPPKKKRKVSRGRSRLLEDFRNNRYPNLQLREIAGHIMEFSQDQHGSRFIQLKLERATPAERQLVFNEILQAAYQLMVDVFGNYVIQKFFEFGSLEQKLALAERIRGHVLSLALQMYGSRVIEKALEFIPSDQQNEMVRELDGHVLKCVKDQNGNHVVQKCIECVQPQSLQFIIDAFKGQVFALSTHPYGCRVIQRILEHCLPDQTLPILEELHQHTEQLVQDQYGNYVIQHVLEHGRPEDKSKIVAEIRGNVLVLSQHKFASNVVEKCVTHASRTERAVLIDEVCTMNDGPHSALYTMMKDQYANYVVQKMIDVAEPGQRKIVMHKIRPHIATLRKYTYGKHILAKLEKYYMKNGVDLGDPKKKRKVDPKKKRKVGGRGGGGSGGGGSGGGGSGPA
With B2 the “repression of SOX2 gene expression” value (SOX2) was “more robust repression of SOX2 gene expression compared to direct fusions”.
